From the RNAGym collection of RNA variant scans (doi:10.7554/elife.90254)

B1: LINE1-full (parent)
chain: UACGUAGGUGGUUUUCCCCUGAUAGUGCUAAGGGGGCCUGGAAGUUUGGACUGGGCAGAGCUCAACACAGCGUGGCAAAGUGGCUGUGGCUAGACUGCCUCUCUGGAUUCCUCGUCACUCAGCAGGGCAUCUCUGAGAGAAAUGCC

Variants of: B1
Experiment: self-cleavage, relative activity (ratio to wild type); higher = more cleavage; in vitro, sequencing; the parent is a self-cleaving ribozyme

Q: For C66U U119C, which self-cleavage is on record?
A: 0.04

Q: Which self-cleavage does the source give for A65G G135U here?
A: 0.14

Q: For C66U U100A, which self-cleavage is on record?
A: 0.02

Q: Which self-cleavage does the source give for U62C G74A here?
A: 0.04

Q: For A65U U104A, which self-cleavage is on record?
A: 0.14

Q: Which self-cleavage does the source give for C63U U112C here?
A: 0.29

Q: Which self-cleavage does the source give for U62G A77G here?
A: 0.07

Q: With C66A as the variant, how does the self-cleavage read?
A: 0.05

Q: With C66U as the variant, how does the self-cleavage read?
A: 0.05

Q: Which self-cleavage does the source give for C66G here?
A: 0.04

Q: For C66U U104C, which self-cleavage is on record?
A: 0.05

Q: With A64G U100A as the variant, how does the self-cleavage read?
A: 0.23

Q: Which self-cleavage does the source give for A64G U100C here?
A: 0.29

Q: Which self-cleavage does the source give for A65G A138U here?
A: 0.08

Q: Which self-cleavage does the source give for U62C G127A here?
A: 0.06

Q: With A64G U81C as the variant, how does the self-cleavage read?
A: 0.3

Q: Which self-cleavage does the source give for C66A A124U here?
A: 0.04

Q: Which self-cleavage does the source give for U62C U91G here?
A: 0

Q: Which self-cleavage does the source give for A65G A78G here?
A: 0.04

Q: For A64C U108C, which self-cleavage is on record?
A: 0.39

Q: Which self-cleavage does the source give for C66U A142C here?
A: 0.04

Q: Which self-cleavage does the source give for A64C C101U here?
A: 0.28

Q: For U62C U130C, which self-cleavage is on record?
A: 0.06

Q: With A64G A92G as the variant, how does the self-cleavage read?
A: 0.14

Q: For U62G A136G, which self-cleavage is on record?
A: 0

Q: For A64G C146U, which self-cleavage is on record?
A: 0.24

Q: With A64U A94C as the variant, how does the self-cleavage read?
A: 0.05

Q: With A64U A94G as the variant, how does the self-cleavage read?
A: 0.09

Q: For A65U A94G, which self-cleavage is on record?
A: 0.1

Q: Which self-cleavage does the source give for A65G U119A here?
A: 0.05

Q: For A65G A141G, which self-cleavage is on record?
A: 0.07

Q: For A64C A138G, which self-cleavage is on record?
A: 0.31

Q: Which self-cleavage does the source give for C66U A129G here?
A: 0.01

Q: Which self-cleavage does the source give for A64C U81G here?
A: 0.3

Q: For A64C U81A, which self-cleavage is on record?
A: 0.44

Q: With A65G G88A as the variant, how does the self-cleavage read?
A: 0.02

Q: With A65G G127A as the variant, how does the self-cleavage read?
A: 0.05

Q: With A64G G127U as the variant, how does the self-cleavage read?
A: 0.21

Q: Which self-cleavage does the source give for A64G G127A here?
A: 0.18

Q: With U62C C113G as the variant, how does the self-cleavage read?
A: 0.07

Q: For A65C A69U, which self-cleavage is on record?
A: 0.36

Q: Which self-cleavage does the source give for C66U U91A here?
A: 0.05

Q: With A65U U132C as the variant, how does the self-cleavage read?
A: 0.2

Q: For A65G G122U, which self-cleavage is on record?
A: 0.07

Q: With A65U U87A as the variant, how does the self-cleavage read?
A: 0.25

Q: Which self-cleavage does the source give for A65U U87C here?
A: 0.04

Q: For A65G A129U, which self-cleavage is on record?
A: 0.02

Q: For A65G A129G, which self-cleavage is on record?
A: 0.03

Q: Which self-cleavage does the source give for C66G U81A here?
A: 0.02

Q: With A65U U102C as the variant, how does the self-cleavage read?
A: 0.3

Q: With A65U U102A as the variant, how does the self-cleavage read?
A: 0.17

Q: With A64U U85C as the variant, how does the self-cleavage read?
A: 0.08

Q: Which self-cleavage does the source give for U62C G93U here?
A: 0.03

Q: Which self-cleavage does the source give for U62C U143A here?
A: 0.06

Q: Which self-cleavage does the source give for U62C U143C here?
A: 0.06

Q: For A65G, which self-cleavage is on record?
A: 0.06

Q: For A65C, which self-cleavage is on record?
A: 0.04

Q: With A65U as the variant, how does the self-cleavage read?
A: 0.17

Q: Which self-cleavage does the source give for A65C G80A here?
A: 0.02

Q: For A64C C95A, which self-cleavage is on record?
A: 0.01

Q: With A64G C98U as the variant, how does the self-cleavage read?
A: 0.11

Q: Which self-cleavage does the source give for A65G U91A here?
A: 0.02

Q: With C63U U132A as the variant, how does the self-cleavage read?
A: 0.46

Q: For C63U U132C, which self-cleavage is on record?
A: 0.35

Q: With U62C C145U as the variant, how does the self-cleavage read?
A: 0

Q: For A67C A77G, which self-cleavage is on record?
A: 0.22

Q: Which self-cleavage does the source give for U62C U132A here?
A: 0.05

Q: For A64G C118U, which self-cleavage is on record?
A: 0.29

Q: Which self-cleavage does the source give for U62G U87G here?
A: 0

Q: For U62G U87A, which self-cleavage is on record?
A: 0.1

Q: Which self-cleavage does the source give for A64U A78G here?
A: 0.27

Q: For A65U A78G, which self-cleavage is on record?
A: 0.16

Q: For A65U A78U, which self-cleavage is on record?
A: 0.2

Q: With A65G U132A as the variant, how does the self-cleavage read?
A: 0.04

Q: With A64U A121U as the variant, how does the self-cleavage read?
A: 0.53

Q: With A64U A121G as the variant, how does the self-cleavage read?
A: 0.49

Q: With U62C G114A as the variant, how does the self-cleavage read?
A: 0.05

Q: Which self-cleavage does the source give for A65G U104C here?
A: 0.01

Q: Which self-cleavage does the source give for C66U U73A here?
A: 0.03

Q: For A65U U143C, which self-cleavage is on record?
A: 0.24

Q: For A65U U143A, which self-cleavage is on record?
A: 0.06

Q: With C63A U104C as the variant, how does the self-cleavage read?
A: 0.07

Q: Which self-cleavage does the source give for A64U G70A here?
A: 0.07

Q: With U62C U134C as the variant, how does the self-cleavage read?
A: 0.05

Q: With U62C U134A as the variant, how does the self-cleavage read?
A: 0.05

Q: Which self-cleavage does the source give for U62C U73G here?
A: 0.06

Q: With U62C U73A as the variant, how does the self-cleavage read?
A: 0.03

Q: With A64C U73A as the variant, how does the self-cleavage read?
A: 0.32

Q: With C66U A92G as the variant, how does the self-cleavage read?
A: 0.02

Q: For C63A A65G, which self-cleavage is on record?
A: 0.02

Q: Which self-cleavage does the source give for C63U A79G here?
A: 0.58

Q: For C63A A140G, which self-cleavage is on record?
A: 0

Q: With A64U U119C as the variant, how does the self-cleavage read?
A: 0.61

Q: Which self-cleavage does the source give for C66U A117G here?
A: 0.05

Q: For A65U A138U, which self-cleavage is on record?
A: 0.16

Q: Which self-cleavage does the source give for C63U A107G here?
A: 0.45

Q: Which self-cleavage does the source give for A65G G86A here?
A: 0.02

Q: With C63U A69G as the variant, how does the self-cleavage read?
A: 0.17

Q: With A64U A136G as the variant, how does the self-cleavage read?
A: 0.71

Q: For A64U A136U, which self-cleavage is on record?
A: 0.45

Q: With A65G C128U as the variant, how does the self-cleavage read?
A: 0.05

Q: With A64G U87C as the variant, how does the self-cleavage read?
A: 0.06

Q: For C66A U115C, which self-cleavage is on record?
A: 0.05

Q: Which self-cleavage does the source give for A65U A121G here?
A: 0.21

Q: Which self-cleavage does the source give for A67C A69G here?
A: 0

Q: With A65G U143A as the variant, how does the self-cleavage read?
A: 0.06

Q: For A65G U143C, which self-cleavage is on record?
A: 0.08

Q: With A64G A69C as the variant, how does the self-cleavage read?
A: 0

Q: For A64G A69G, which self-cleavage is on record?
A: 0.07

Q: For A64G A69U, which self-cleavage is on record?
A: 0.08

Q: Which self-cleavage does the source give for A64G U85C here?
A: 0.1

Q: Which self-cleavage does the source give for A64G U85A here?
A: 0.07

Q: Which self-cleavage does the source give for A64U A65G here?
A: 0.07

Q: For A65G U130C, which self-cleavage is on record?
A: 0.1

Q: For A67C A94G, which self-cleavage is on record?
A: 0

Q: Which self-cleavage does the source give for A64G A140G here?
A: 0.26

Q: Which self-cleavage does the source give for A64G G105A here?
A: 0.03

Q: With A64C U134C as the variant, how does the self-cleavage read?
A: 0.61

Q: Which self-cleavage does the source give for A64U G144A here?
A: 0.42

Q: Which self-cleavage does the source give for U62C U87A here?
A: 0.04

Q: For U62C U87C, which self-cleavage is on record?
A: 0.05

Q: With A64U A69U as the variant, how does the self-cleavage read?
A: 0.07

Q: With A64U A69G as the variant, how does the self-cleavage read?
A: 0.17

Q: With C63U A129G as the variant, how does the self-cleavage read?
A: 0.3

Q: Which self-cleavage does the source give for A67C A92G here?
A: 0.05

Q: With A64C U112C as the variant, how does the self-cleavage read?
A: 0.29

Q: With C63A A94G as the variant, how does the self-cleavage read?
A: 0.08

Q: With C63U U143C as the variant, how does the self-cleavage read?
A: 0.3

Q: Which self-cleavage does the source give for C63U U143A here?
A: 0.44

Q: Which self-cleavage does the source give for U62G C63U here?
A: 0.07

Q: Which self-cleavage does the source give for A64G A67G here?
A: 0.09

Q: With A64G A67U as the variant, how does the self-cleavage read?
A: 0.11

Q: For A64G A124G, which self-cleavage is on record?
A: 0.28

Q: With U62C U104C as the variant, how does the self-cleavage read?
A: 0.07

Q: For U62C U104A, which self-cleavage is on record?
A: 0.05

Q: Which self-cleavage does the source give for A64G U143C here?
A: 0.26

Q: Which self-cleavage does the source give for U62C G89A here?
A: 0.01

Q: With U62C G97C as the variant, how does the self-cleavage read?
A: 0.06

Q: Which self-cleavage does the source give for A64C U96C here?
A: 0.18

Q: For A64G C66U, which self-cleavage is on record?
A: 0.08

Q: For C63A A79G, which self-cleavage is on record?
A: 0.12

Q: Which self-cleavage does the source give for U62C G70U here?
A: 0

Q: For A64U U112C, which self-cleavage is on record?
A: 0.44

Q: With A64U A79G as the variant, how does the self-cleavage read?
A: 0.4

Q: With A64G A136U as the variant, how does the self-cleavage read?
A: 0.28

Q: Which self-cleavage does the source give for A64G A136G here?
A: 0.22

Q: With C66U U85G as the variant, how does the self-cleavage read?
A: 0.03

Q: Which self-cleavage does the source give for A64C A69U here?
A: 0.05

Q: Which self-cleavage does the source give for A65G G75A here?
A: 0.03

Q: For A67C A140G, which self-cleavage is on record?
A: 0.06

Q: Which self-cleavage does the source give for C63U A141G here?
A: 0.36

Q: With U62C C128U as the variant, how does the self-cleavage read?
A: 0.03

Q: Which self-cleavage does the source give for C66U A77G here?
A: 0.07

Q: With A64U U104A as the variant, how does the self-cleavage read?
A: 0.29

Q: Which self-cleavage does the source give for A64G U73A here?
A: 0.19

Q: Which self-cleavage does the source give for A64G U73C here?
A: 0.17

Q: With C63A A121U as the variant, how does the self-cleavage read?
A: 0

Q: Which self-cleavage does the source give for A65G C123G here?
A: 0.03

Q: Which self-cleavage does the source give for A65G C123U here?
A: 0.04

Q: Which self-cleavage does the source give for C66U A78G here?
A: 0.04

Q: With A65U U73C as the variant, how does the self-cleavage read?
A: 0.16

Q: For A64U U81A, which self-cleavage is on record?
A: 0.85

Q: With A64U U130C as the variant, how does the self-cleavage read?
A: 0.55

Q: Which self-cleavage does the source give for A64U U130G here?
A: 0.43

Q: Which self-cleavage does the source give for A64U U100C here?
A: 0.77

Q: With A64U U100A as the variant, how does the self-cleavage read?
A: 0.23

Q: Which self-cleavage does the source give for U62C U115C here?
A: 0.1
